{"source": "patent US20090253622A1", "about": "“USE OF TLR3 AGONISTS FOR THE TREATMENT OF NEURODEGENERATIVE DISORDERS” (Nederlandse Organisatie voor toegepast - …, priority 2006, published 2009)", "molecules": {"B1": {"name": "clone F5: cDNA clone product with amino acid sequence identical to residues 44-149 of human stathmin (protein)", "chain": "DFSLEEIQKKLEAAEERRKSHEAEVLKQLAEKREHEKEVLQKAIEENNNFSKMAEEKITHKMEANKENREAQMAAKLERLREKDKHIEEVRKNKESKDPADETEAD"}}, "test_system": "human astrocytes", "experiment": "cDNA bank screening: COS-7 transfectant supernatants on human astrocytes, CXCL8 release", "assay_type": "cell-based", "conditions": "COS-7 supernatant, 48 h", "experimental": "Cos-7 cells (25,000 cells per well in 96-well plates) were transfected for 5 h with 768 pools of cDNA derived from human brain tumours (5 pooled tumours including meningioma, oligodendroglioma, astrocytoma grades II and IV, and medulloblastoma; NCI CGAP Brn35; Invitrogen) using lipofectamine, after which cells were thoroughly washed. Transfection with green-fluorescent protein-encoding cDNA was used as an internal control for transfection efficiencies. After continued culture of the transfected cells for 48 h, 75 μL of each culture supernatant was harvested and added to cultured human astrocytes seeded at 1,000 cells per well in 75 μL. After 48 h of culture, supernatants were harvested and evaluated for CXCL8 release using ELISA. […]\nA cDNA bank derived from 5 pooled tumours including meningioma, oligodendroglioma, astrocytoma grades II and IV and medulloblastoma was used as a source of sequences potentially encoding an endogenous protein agonist for TLR3. The cDNAs were cloned into plasmid vectors promoting expression and secretion of the cDNA-encoded product by mammalian cells, and these plasmids were transfected into COS-7 cells and evaluated in a two-step approach. […] To monitor such an astrocyte response in this first stage, secretion of CXCL8 was evaluated since this is a sensitive marker for TLR3 activation in these and other cells (cf. FIGS. 9 and 10). […]"}
{"molecule": "B1", "values": [{"measurement": "CXCL8 secretion in astrocytes triggered by cDNA-encoded product", "result": "marked CXCL8 secretion"}]}
